± gives the uncertainty stated by the source.
B1: Arginine-glutamic acid dipeptide repeats protein, residues 502 to 543; numbered along this chain, Q9P2R6 (parent)
chain: LKGYACRHCFTTTSKDWHHGGRENILLCTDCRIHFKKYGELP

Variants of: B1
Experiment: abundance fitness (aPCA) (normalised: wild type 0, dead -1); higher = more abundant; growth selection in yeast, the domain comes from the species named
Conditions: Homo sapiens

Abundance fitness, by site and new letter:
K37: V -0.149 ± 0.036 | W -0.135 ± 0.044 | A -0.034 ± 0.037 | E -0.04 ± 0.047 | N -0.09 ± 0.068 | M -0.089 ± 0.065 | Q -0.027 ± 0.046 | R -0.026 ± 0.036 | L -0.194 ± 0.041 | P -0.278 ± 0.13 | G -0.184 ± 0.039 | H -0.182 ± 0.38 | C -0.168 ± 0.061 | D -0.013 ± 0.049 | T -0.032 ± 0.056 | Y -0.159 ± 0.12 | S -0.052 ± 0.051
L26: Y -0.403 ± 0.11
C31: R -1.16 ± 0.07 | P -1.07 ± 0.15 | L -1.1 ± 0.075 | E -0.742 ± 0.05 | H -0.733 ± 0.091 | W -1.33 ± 0.19 | Y -0.911 ± 0.13 | V -1.08 ± 0.079 | A -0.981 ± 0.057 | D -0.527 ± 0.21 | K -0.732 ± 0.092 | Q -1.14 ± 0.19
L27: A -0.405 ± 0.036 | D -0.541 ± 0.081 | W -0.259 ± 0.035 | I -0.172 ± 0.058 | V -0.276 ± 0.034 | K -0.511 ± 0.045 | H -0.086 ± 0.15 | F -0.444 ± 0.07 | Y -0.301 ± 0.099 | Q -0.498 ± 0.069 | R -0.554 ± 0.035 | E -0.318 ± 0.044 | M -0.209 ± 0.044 | C -0.217 ± 0.086 | P -0.396 ± 0.059 | G -0.494 ± 0.039 | T -0.294 ± 0.059
D30: M -0.157 ± 0.06 | Q -0.07 ± 0.043 | S -0.104 ± 0.046 | I -0.404 ± 0.066 | C -0.248 ± 0.12 | K -0.098 ± 0.045 | L -0.29 ± 0.051 | W -0.352 ± 0.039 | G -0.044 ± 0.034 | P -0.058 ± 0.059 | T 0.068 ± 0.072 | E -0.069 ± 0.042
C28: E -0.685 ± 0.058 | R -0.921 ± 0.045 | P -0.853 ± 0.26 | W -1 ± 0.12 | F -0.789 ± 0.17 | M -1.31 ± 0.17 | Q -0.746 ± 0.059 | S -0.789 ± 0.058 | Y -0.617 ± 0.13 | G -0.798 ± 0.046 | V -0.851 ± 0.058 | K -0.841 ± 0.11 | A -0.873 ± 0.052 | H -0.872 ± 0.18 | L -1.13 ± 0.11
T29: M -0.192 ± 0.058 | H -0.474 ± 0.41 | Q -0.106 ± 0.042 | C -0.096 ± 0.054 | V -0.154 ± 0.039 | D -0.151 ± 0.091 | R -0.125 ± 0.033 | N -0.07 ± 0.27 | L -0.089 ± 0.039 | I -0.094 ± 0.13 | K -0.145 ± 0.045 | W -0.042 ± 0.043 | E -0.105 ± 0.043 | A -0.067 ± 0.036 | P -0.347 ± 0.05 | G -0.13 ± 0.033 | Y 0.02 ± 0.069
H34: S -0.04 ± 0.041 | E -0.242 ± 0.037 | P -0.805 ± 0.21 | G -0.193 ± 0.033 | D -0.32 ± 0.1 | L -0.282 ± 0.045 | I -0.472 ± 0.16 | W -0.001 ± 0.037 | V -0.3 ± 0.038 | M -0.204 ± 0.061 | Q -0.098 ± 0.043 | C 0.05 ± 0.069 | A -0.033 ± 0.033 | R -0.258 ± 0.032 | F -0.218 ± 0.094 | Y -0.102 ± 0.088 | T -0.204 ± 0.047
E40: Q -0.012 ± 0.058 | K -0.044 ± 0.045 | H -0.11 ± 0.073 | L -0.122 ± 0.038 | P -0.521 ± 0.089 | W -0.265 ± 0.038 | T -0.078 ± 0.036 | V -0.036 ± 0.038 | D -0.101 ± 0.049 | S -0.077 ± 0.037 | G -0.136 ± 0.033 | Y -0.143 ± 0.094 | F -0.472 ± 0.1 | I -0.095 ± 0.38 | C -0.073 ± 0.072 | M -0.176 ± 0.045 | A -0.066 ± 0.034 | N -0.116 ± 0.056
P42: L -0.491 ± 0.085 | E -0.3 ± 0.09 | Q -0.349 ± 0.073 | A -0.367 ± 0.048 | R -0.654 ± 0.1 | V -0.456 ± 0.09 | G -0.519 ± 0.12
I33: D 0.117 ± 0.054 | E 0.081 ± 0.04 | P -0.465 ± 0.057 | G 0.104 ± 0.036 | M -0.007 ± 0.044 | S 0.017 ± 0.039 | L 0.074 ± 0.043 | W -0.059 ± 0.036 | K -0.011 ± 0.04 | Q 0.074 ± 0.038 | T 0.042 ± 0.053 | Y -0.01 ± 0.063 | C 0.103 ± 0.047 | R 0.026 ± 0.031 | V 0.068 ± 0.037 | A 0.079 ± 0.036 | H 0.017 ± 0.085 | F -0.079 ± 0.11
K36: L -0.068 ± 0.042 | R -0.029 ± 0.034 | G 0.079 ± 0.033 | M -0.095 ± 0.051 | S 0.008 ± 0.041 | C -0.134 ± 0.064 | Q 0.123 ± 0.075 | V -0.038 ± 0.048 | E -0.012 ± 0.039 | T 0.009 ± 0.055 | N 0.248 ± 0.092 | F 0.294 ± 0.13 | P -0.363 ± 0.054 | A 0.081 ± 0.035 | W -0.147 ± 0.052
G39: T -0.291 ± 0.05 | M -0.328 ± 0.065 | A -0.108 ± 0.033 | I -0.726 ± 0.17 | E -0.078 ± 0.04 | Q -0.082 ± 0.046 | W -0.301 ± 0.038 | S -0.171 ± 0.041 | F -0.393 ± 0.14 | N 0.027 ± 0.095 | P -0.478 ± 0.061 | R -0.118 ± 0.03 | C -0.142 ± 0.26 | V -0.42 ± 0.042 | Y -0.259 ± 0.047 | L -0.249 ± 0.048 | D 0.053 ± 0.071
F35: D -0.112 ± 0.098 | Q -0.058 ± 0.044 | G -0.287 ± 0.031 | W 0.001 ± 0.037 | L -0.057 ± 0.034 | M -0.163 ± 0.067 | K -0.091 ± 0.089 | A -0.089 ± 0.039 | R -0.236 ± 0.034 | C -0.191 ± 0.06 | P -0.422 ± 0.064 | N -0.245 ± 0.14 | S -0.187 ± 0.038 | H -0.015 ± 0.068
Y38: K -0.002 ± 0.041 | A -0.077 ± 0.038 | N 0.083 ± 0.087 | S -0.017 ± 0.047 | C 0.059 ± 0.054 | Q -0.062 ± 0.11 | D -0.114 ± 0.047 | I -0.298 ± 0.1 | F -0.069 ± 0.062 | T 0.123 ± 0.059 | H -0.111 ± 0.26 | G -0.185 ± 0.033 | W -0.074 ± 0.049 | M -0.117 ± 0.06 | V 0.022 ± 0.036 | L -0.123 ± 0.04 | R -0.084 ± 0.034 | E 0.018 ± 0.041 | P -0.215 ± 0.056
R32: D -0.001 ± 0.045 | K -0.137 ± 0.046 | C -0.114 ± 0.04 | G -0.029 ± 0.033 | H -0.037 ± 0.12 | N -0.063 ± 0.071 | L -0.058 ± 0.042 | W 0.053 ± 0.043 | S -0.013 ± 0.035 | T -0.088 ± 0.048 | P -0.612 ± 0.072 | M -0.017 ± 0.072 | V -0.14 ± 0.036 | F 0.021 ± 0.061 | E -0.045 ± 0.042 | Q -0.035 ± 0.045 | A -0.011 ± 0.038
L41: V -0.246 ± 0.039 | G -0.276 ± 0.036 | C -0.223 ± 0.052 | I -0.46 ± 0.092 | P -0.253 ± 0.041 | S -0.325 ± 0.045 | E -0.301 ± 0.039 | A -0.317 ± 0.041 | H -0.416 ± 0.069 | K -0.309 ± 0.044 | M -0.126 ± 0.057 | Q -0.327 ± 0.078 | T -0.044 ± 0.08 | D -0.245 ± 0.072 | F 0.271 ± 0.33 | N -0.366 ± 0.055 | W -0.302 ± 0.038 | Y -0.22 ± 0.097

Source: the Human Domainome abundance scans (Beltran et al. 2025)
